In assay [1] the target is T1, mouse common cytokine receptor γ-chain (IL-2Rγ) (mouse, UniProt P34902 23-263, limits assumed).
T1 construct: Recombinant mouse IL-2Rγ protein; also called mo IL-2R; mouse IL-2R gamma
T1 sequence (looked up): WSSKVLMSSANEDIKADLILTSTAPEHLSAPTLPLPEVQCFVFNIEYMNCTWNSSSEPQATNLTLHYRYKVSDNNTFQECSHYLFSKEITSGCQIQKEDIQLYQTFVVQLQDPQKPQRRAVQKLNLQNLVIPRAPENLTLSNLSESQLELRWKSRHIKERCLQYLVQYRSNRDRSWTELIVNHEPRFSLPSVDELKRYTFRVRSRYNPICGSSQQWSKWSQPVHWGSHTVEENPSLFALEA
Put plainly: P.E. binding ELISA. The essentials:
(§1)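 Human or mouse IL-2Rα, IL-2Rβ or IL-2Rγ protein coated directly overnight at 4° C, blocked with 4% Marvel/PBS for 1 hour.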

For assay [2], the target named is T2, human common cytokine receptor γ-chain (IL-2Rγ) (human, UniProt P31785 23-262, limits assumed).
T2 construct: Recombinant human IL-2Rγ protein, coated (ELISA) or amine-coupled to a CM5 chip (SPR); also called hu IL-2R; CD132
T2 sequence: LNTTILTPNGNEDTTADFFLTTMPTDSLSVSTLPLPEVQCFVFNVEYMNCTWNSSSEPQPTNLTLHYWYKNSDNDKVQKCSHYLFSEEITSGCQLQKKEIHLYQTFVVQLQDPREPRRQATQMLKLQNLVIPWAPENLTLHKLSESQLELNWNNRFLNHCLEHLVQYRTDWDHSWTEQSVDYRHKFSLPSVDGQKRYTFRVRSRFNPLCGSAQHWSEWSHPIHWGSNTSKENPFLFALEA
Put plainly: P.E. binding ELISA. The essentials: as §1
For orientation: In an ELISA, binding on a coated surface is turned into a signal by an enzyme label.

Assay [3] has as its target T1, mouse common cytokine receptor γ-chain …. The experiment in a line: P.E. off-rate SPR. The essentials: (§2)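 Immobilised receptor density: ~2500 RU (CM5, amine coupling). Analyte: VHH-containing P.E., 30 uL/min. Read-out: off-rate over 120s.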
In assay [4] the target is T2, human common cytokine receptor γ-chain …. The experiment in a line: P.E. off-rate SPR. In outline:
as §2

The target of assay [5] is T3, human IL-2Rβ (human, UniProt P14784 27-240, limits assumed).
T3 construct: Recombinant human IL-2Rβ protein, coated on ELISA plates or immobilized on a CM5 chip; also called hu IL-2R; interleukin 2 receptor β-chain
T3 sequence: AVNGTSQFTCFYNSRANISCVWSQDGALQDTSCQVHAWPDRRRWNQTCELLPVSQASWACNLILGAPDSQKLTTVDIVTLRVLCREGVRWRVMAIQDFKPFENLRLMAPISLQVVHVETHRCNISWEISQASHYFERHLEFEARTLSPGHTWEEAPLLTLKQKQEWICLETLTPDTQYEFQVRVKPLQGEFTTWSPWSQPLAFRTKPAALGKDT
The experiment in a line: P.E. binding ELISA, human IL-2Rβ coated. Here is the method: In a binding ELISA, human or mouse IL-2Rα, IL-2Rβ and IL-2Rγ proteins were coated directly on maxisorp microtiter plates overnight at 4° C. Free binding sites were blocked using 4% Marvel in PBS for 1 hour. Next, 1:5 dilution of P.E. in 1% Marvel/PBS were added to wells and incubated for 1 hour. […] Binding specificity was determined based on O.D. at 450 nm values compared to negative controls.

In assay [6] the target is T3, human IL-2Rβ. The experiment in a line: SPR off-rate ranking of P.E., human IL-2Rβ immobilized. The protocol: SPR was performed to determine dissociation rates using Biacore 3000 instrument (GE Healthcare). Briefly, human and mouse IL-2R proteins were immobilized on carboxylmethyl dextran sensor chip (CM5) at approximately 2500 RUs using amine coupling in acetate buffer (GE Healthcare). The VHH-containing P.E. were loaded with a flow rate of 30 uL/min and the off-rates were measured over a 120s period.

B1: FJ1427_P035MP07G02 (VHH)
VHH: QVQLVESGGGLVQAGGSLRLSCAASGRTLSRYAMGWFRQAPGKEREFVTANSWGGDTYYADSVQGRFTFSRDNAKNTVYLQMNSLQPEDTAVYYCAAAPTSFATTAYSSSNSYAYWGQGTQVTVSS
notes: tested as periplasmic extract; also called Clone nr
As to B1, the “PE binding ELISA OD” value in assay [1] worked out at 0.051 OD450 nm; in assay [2], 1.22 OD450 nm. The dissociation rate constant (koff) (commonly the first-order rate constant of dissociation) amounted to 0.1 s⁻¹ in assay [3] and 0.00365 s⁻¹ in assay [4].

B2: FJ1427_P035MP07E03 (VHH)
VHH: QVQLVESGGGLVQAGGSLRLSCAASGRTLSRYAMGWFRQAPGKEREFVTANSWGGDTYYADSVQGRFTFSRDNAKNTVYLQMNSLQPEDTAVYYCAAAPTSFATTAYSSSNSYAYWGQGTQVTVSS
notes: tested as periplasmic extract; also called Clone nr; 597
On to B2, for which the “PE binding ELISA OD” value in assay [1] stood at 0.048 OD450 nm; in assay [2], 0.445 OD450 nm. Also, the off-rate (koff) in assay [3] is 0.0966 s⁻¹; in assay [4], 0.00311 s⁻¹.

B3: FJ1427_P035MP07E06 (VHH)
VHH: QVQLVESGGGLVQAGGSLRLSCAASGRTLSRYAMGWFRQAPGKEREFVTANSWGGDTYYADSVQGRFTFSRDNAKNTVYLQMNSLQPEDTAVYYCAAAPTSFATTAYSSSNSYAYWGQGTQVTVSS
notes: as for B1
Turning to B3, the entries for the “PE binding ELISA OD” value in assay [1] and in assay [2] were 0.046 OD450 nm and 0.464 OD450 nm, respectively. The results for the koff in assay [3] and in assay [4] were 0.102 s⁻¹ and 0.00272 s⁻¹, respectively.

B4: FJ1427_P035MP07C08 (VHH)
VHH: QVQLVESGGGLVQAGGSLRLSCAASGRTLSRYAMGWFRQAPGKEREFVTANSWGGDTYYADSVQGRFTFSRDNAKNTVYLQMNSLQPEDTAVYYCAAAPTSFATTAYSSSNSYAYWGQGTQVTVSS
notes: tested as periplasmic extract; also called Clone nr; 635
For the molecule B4, the “PE binding ELISA OD” value came to 0.049 OD450 nm in assay [1] and 0.528 OD450 nm in assay [2]. Moreover, the koff in assay [3] was found to be 0.108 s⁻¹; in assay [4], 0.00259 s⁻¹.

B5: FJ1427_P035MP07A08 (VHH)
VHH: QVQLVESGGGLVQAGGSLRLSCAASGRTLSRYAMGWFRQAPGKEREFVTANSWGGDTYYADSVQGRFTFSRDNAKNTVYLQMNSLQPEDTAVYYCAAAPTSFATTAYSSSNSYAYWGQGTQVTVSS
notes: tested as periplasmic extract; also called Clone nr; 633
Consider B5, for which the “PE binding ELISA OD” value in assay [1] worked out at 0.049 OD450 nm; in assay [2], 0.889 OD450 nm. The koff in assay [3] is 0.106 s⁻¹; in assay [4], 0.00255 s⁻¹.

B6: FJ1427_P035MP07E10 (VHH)
VHH: QVQLVESGGGLVQAGGSLRLSCAASGRTLSRYAMGWFRQAPGKEREFVTANSWGGDTYYADSVQGRFTFSRDNAKNTVYLQMNSLQPEDTAVYYCAAAPTSFATTAYSSSNSYAYWGQGTQVTVSS
notes: tested as periplasmic extract; also called Clone nr; 653
Turning to B6, the “PE binding ELISA OD” value was 0.047 OD450 nm in assay [1] and 0.434 OD450 nm in assay [2]. Besides, the koff in assay [3] is 0.107 s⁻¹; in assay [4], 0.0033 s⁻¹.

B7: FJ1427_P035MP07D03 (VHH)
VHH: QVQLVESGGGLVQAGGSLRLSCAASGRTLSRYAMGWFRQAPGKEREFVTANSWGGDTYYADSVQGRFTFSRDNAKNTVYLQMNSLQPEDTAVYYCAAAPTSFATTAYSSSNSYAYWGQGTQVTVSS
notes: as for B1
In the case of B7, the “PE binding ELISA OD” value in assay [1] worked out at 0.046 OD450 nm; in assay [2], 1.25 OD450 nm. Moreover, the koff in assay [3] stood at 0.107 s⁻¹; in assay [4] it was 0.00339 s⁻¹.

B8: FJ1427_P035MP07C07 (VHH)
VHH: QVQLVESGGGLVQAGGSLRLSCAASGRTLSRYAMGWFRQAPGKEREFVTANSWGGDTYYADSVQGRFTFSRDNAKNTVYLQMNSLQPEDTAVYYCAAAPTSFATTAYSSSNSYAYWGQGTQVTVSS
notes: tested as periplasmic extract; also called Clone nr; 627
As to B8, the “PE binding ELISA OD” value in assay [1] is 0.047 OD450 nm; in assay [2], 0.469 OD450 nm. In addition, the dissociation rate constant (koff) was 0.105 s⁻¹ in assay [3] and 0.0025 s⁻¹ in assay [4].

B9: FJ1427_P035MP07G07 (VHH)
VHH: QVQLVESGGGLVQAGGSLRLSCAASGRTLSRYAMGWFRQAPGKEREFVTANSWGGDTYYADSVQGRFTFSRDNAKNTVYLQMNSLQPEDTAVYYCAAAPTSFATTAYSSSNSYAYWGQGTQVTVSS
notes: as for B1
Take B9: the “PE binding ELISA OD” value worked out at 0.045 OD450 nm in assay [1] and 0.479 OD450 nm in assay [2]. In addition, the off-rate constant (koff) in assay [3] was 0.106 s⁻¹; in assay [4], 0.00273 s⁻¹.

B10: FJ1427_P035MP07G03 (VHH)
VHH: QVQLVESGGGLVQAGGSLRLSCAASGRTLSRYAMGWFRQAPGKEREFVTANSWGGDTYYADSVQGRFTFSRDNAKNTVYLQMNSLQPEDTAVYYCAAAPTSFATTAYSSSNSYAYWGQGTQVTVSS
notes: as for B1
For B10, the entries for the “PE binding ELISA OD” value in assay [1] and in assay [2] were 0.048 OD450 nm and 0.495 OD450 nm, respectively. Also, the koff in assay [3] worked out at 0.099 s⁻¹; in assay [4] it was 0.00309 s⁻¹.

B11: FJ1427_P035MP07B05 (VHH)
VHH: QVQLVESGGGLVQAGGSLRLSCAASGRTLSRYAMGWFRQAPGKEREFVTANSWGGDTYYADSVQGRFTFSRDNAKNTVYLQMNSLQPEDTAVYYCAAAPTSFATTAYSSSNSYAYWGQGTQVTVSS
notes: tested as periplasmic extract; also called Clone nr; 610
Regarding B11, the “PE binding ELISA OD” value worked out at 0.045 OD450 nm in assay [1] and 0.439 OD450 nm in assay [2]. In addition, the off-rate (koff) in assay [3] is 0.11 s⁻¹; in assay [4], 0.00282 s⁻¹.

B12: FJ1427_P035MP07H08 (VHH)
VHH: QVQLVESGGGLVQAGGSLRLSCAASGRTLSRYAMGWFRQAPGKEREFVTANSWGGDTYYADSVQGRFTFSRDNAKNTVYLQMNSLQPEDTAVYYCAAAPTSFATTAYSSSNSYAYWGQGTQVTVSS
notes: tested as periplasmic extract; also called Clone nr; 640
In the case of B12, the entries for the “PE binding ELISA OD” value in assay [1] and in assay [2] were 0.047 OD450 nm and 0.51 OD450 nm, respectively. Also, the koff in assay [3] was determined as 0.1 s⁻¹; in assay [4], 0.00303 s⁻¹.

B13: FJ1427_P035MP07A07 (VHH)
VHH: QVQLVESGGGLVQAGGSLRLSCAASGRTLSRYAMGWFRQAPGKEREFVTANSWGGDTYYADSVQGRFTFSRDNAKNTVYLQMNSLQPEDTAVYYCAAAPTSFATTAYSSSNSYAYWGQGTQVTVSS
notes: as for B1
On to B13, for which the “PE binding ELISA OD” value in assay [1] was 0.047 OD450 nm; in assay [2], 1.04 OD450 nm. In addition, the koff was 0.0971 s⁻¹ in assay [3] and 0.00173 s⁻¹ in assay [4].

B14: FJ1427_P035MP06H02 (VHH)
VHH: QVQLVESGGGLVQAGGSLRLSCAVSGDVFVRYTMAWFRQAPGKEREFVASVTDSGRTTEYVDSVKGRFTVSRDNAKNTAYLQMNNLKPEDTAVYYCAANTDYFQIRSLDLNTWGQGTQVTVSS
notes: Soluble VHH in periplasmic extract (P.E.); also called Clone nr
With B14, the “OD450 nm (P.E. binding ELISA)” value in assay [5] came out at 0.371 OD450 nm. In assay [6], this molecule displayed an off-rate (koff) of 0.000171 s⁻¹.

B15: FJ1427 P035MP06B06 (VHH)
VHH: EVQLVESGGGLVQAGGPLRLSCAVSGDVFVRYTMAWFRQAPGKEREFVASVTDSGRTTEYVDSVKGRFTVSRDNAKNTAYLQMNNLKPEDTAVYYCAANTDYFQIRSLDLNTWGQGTQVTVSS
notes: as for B14
For the molecule B15, in assay [5], the “OD450 nm (P.E. binding ELISA)” value was determined as 1.42 OD450 nm. In assay [6], the koff was 0.000324 s⁻¹.

B16: FJ1427_P035MP07B07 (VHH)
VHH: QVQLVESGGGLVQAGGSLRLSCAASGRSLSRYAMGWFRQAPGKEREFVAAISWGGDSFYTDSVEGRFTFSRDNAKNAVYLEMNDLQPEDTAVYYCAAAPTSFPTTAYSSSNSYSYWGRGTQVTVSS
notes: tested as periplasmic extract; also called Clone nr; 626
Consider B16, for which the figures for the “PE binding ELISA OD” value in assay [1] and in assay [2] were 0.045 OD450 nm and 0.29 OD450 nm, respectively. Besides, the values for the koff in assay [3] and in assay [4] were 0.00347 s⁻¹ and 0.00259 s⁻¹, respectively.

B17: FJ1427_P035MP07C10 (VHH)
VHH: QVQLVESGGGLVQAGGSLRLSCAASGRSLSRDAMGWFRQAPGKEREFVAVMSWGGDTFYTDSVEGRFTFSRDNAKNAVYLEMNDLQPEDTAVYYCAAAPTSFATTAYSSSNSYSYWGRGTQVTVSS
notes: tested as periplasmic extract; also called Clone nr; 651
Regarding B17, the “PE binding ELISA OD” value in assay [1] was 0.074 OD450 nm; in assay [2], 0.424 OD450 nm. For the same molecule, the results for the off-rate constant (koff) in assay [3] and in assay [4] were 0.0132 s⁻¹ and 0.00176 s⁻¹, respectively.
